Publication PMC10593839, “The liver microenvironment orchestrates FGL1-mediated immune escape and progression of metastatic colorectal cancer” (Nature Communications, 2023)

Biological target: T1, recombinant hLAG-3 (lymphocyte activating 3) (human, UniProt P18627 23-450)
T1 construct: Bought recombinant protein; source: bought: ABclonal Technology
T1 sequence (looked up): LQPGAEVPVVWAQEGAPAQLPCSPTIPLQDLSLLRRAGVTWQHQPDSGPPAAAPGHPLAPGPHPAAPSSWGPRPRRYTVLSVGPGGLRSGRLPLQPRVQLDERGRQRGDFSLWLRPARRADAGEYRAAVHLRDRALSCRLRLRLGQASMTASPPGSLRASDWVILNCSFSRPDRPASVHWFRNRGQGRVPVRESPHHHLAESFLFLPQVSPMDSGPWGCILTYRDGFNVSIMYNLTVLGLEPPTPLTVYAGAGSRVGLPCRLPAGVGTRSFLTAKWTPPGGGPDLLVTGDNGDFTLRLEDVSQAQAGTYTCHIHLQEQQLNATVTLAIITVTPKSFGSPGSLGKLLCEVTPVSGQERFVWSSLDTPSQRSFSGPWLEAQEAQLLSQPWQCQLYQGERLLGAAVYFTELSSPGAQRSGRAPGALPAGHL
Experiment: ELISA; recombinant hLAG-3 (1 μg/mL) coated on ELISA microwells; different amounts of recombinant hFGL1 incubated for 1 h; detected with HRP-conjugated anti-hFGL1 antibody, OD 450 nm
Settings: both partners purified

binding result: binds
B1: recombinant hFGL1 (fibrinogen-like protein 1) (ligand, human, UniProt Q08830 23-312, looked up)
chain: LEDCAQEQMRLRAQVRLLETRVKQQQVKIKQLLQENEVQFLDKGDENTVIDLGSKRQYADCSEIFNDGYKLSGFYKIKPLQSPAEFSVYCDMSDGGGWTVIQRRSDGSENFNRGWKDYENGFGNFVQKHGEYWLGNKNLHFLTTQEDYTLKIDLADFEKNSRYAQYKNFKVGDEKNFYELNIGEYSGTAGDSLAGNFHPEVQWWASHQRMKFSTWDRDHDNYEGNCAEEDQSGWWFNRCHSANLNGVYYSGPYTAKTDNGIVWYTWHGWWYSLKSVVMKIRPNDFIPNVI
notes: fibrinogen-like protein 1 (FGL1), human, recombinant; Bought recombinant protein; also called HFREP1; source: bought: ABclonal Technology
